Measured values from paper PMC4786692.
pEC50, pIC50, pKd: −log10 of the molar value. One block for each substance: values may come before it.

What was measured:
VEGF dual dAb (human) [1] = assay: SPR; Biacore T200, C1 chip; VEGF dual dAb captured on immobilised protein A (20 RU); VEGF injected at 0.03-32 nM (32 nM curves removed), 60 μl/min; 37 °C, HBS-EP; 1:1 model; triplicate
[2] = biological target: Human VEGF_(1–165) (human); assay: SEC-MALS; input proteins and complexes at input molar ratios 1:2, 2:1, 4:1 (dual dAb-VEGF) and 1:1, 1:2, 2:1, 4:1 (bevacizumab-VEGF); Superdex 200 column; PBS pH 7.4
VEGF dual dAb (human) [3] = assay: SPR; ProteOn GLM chip; VEGF dual dAb alone or in complex with VEGF-165 immobilised by amine coupling; FcRn injected at 3.9-1000 nM; 25 °C, HBS-EP pH 6; equilibrium model
[4] = biological target: VEGF dual dAb in complex with human VEGF-165 (human); assay: as above
VEGF dual dAb in complex with human VEGF-165 (human), sequence (heavy, as listed by the source, chain 1 of 2): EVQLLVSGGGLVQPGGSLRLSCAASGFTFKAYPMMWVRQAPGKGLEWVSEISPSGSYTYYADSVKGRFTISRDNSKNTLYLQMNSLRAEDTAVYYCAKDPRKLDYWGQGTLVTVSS
VEGF dual dAb in complex with human VEGF-165 (human), sequence (light, as listed by the source, chain 2 of 2): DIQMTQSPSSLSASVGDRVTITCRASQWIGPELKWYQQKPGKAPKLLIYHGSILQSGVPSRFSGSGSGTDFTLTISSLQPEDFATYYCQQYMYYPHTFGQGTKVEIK

[5] = biological target: VEGF-165 (R&D Systems) (human); assay: MSD receptor binding inhibition assay; VEGFR1 coated at […]; anti-VEGF molecule added 10 min before VEGF-165 (10 ng/ml final); 2 h room temperature; bound VEGF detected with biotinylated anti-VEGF and streptavidin sulfo-TAG
[6] = biological target: VEGF-165 (R&D Systems) (human); assay: MSD receptor binding inhibition assay; VEGFR2 coated at […]; anti-VEGF molecule added 10 min before VEGF-165 (10 ng/ml final); 2 h room temperature; bound VEGF detected with biotinylated anti-VEGF and streptavidin sulfo-TAG
Human VEGF-A121 (human) = assay: MSD (meso scale discovery) plate binding assay; VEGF ligand coated at 2 μg/ml on MSD high bind plate; anti-VEGF molecule added in 0.1% BSA/PBS, 2 h room temperature; detection with sulfo-TAG anti-human IgG (Fc-specific); n = 3
[7] = biological target: Human VEGF_(1–165) (human); assay: as above
Murine VEGF-A164 (mouse) = assay: as above

VEGF dual dAb (human), sequence (heavy, as listed by the source, chain 1 of 2): as the sequence (heavy, as listed by the source, chain 1 of 2) above
VEGF dual dAb (human), sequence (light, as listed by the source, chain 2 of 2): as the sequence (light, as listed by the source, chain 2 of 2) above
Aflibercept (Fc fusion), sequence (chain): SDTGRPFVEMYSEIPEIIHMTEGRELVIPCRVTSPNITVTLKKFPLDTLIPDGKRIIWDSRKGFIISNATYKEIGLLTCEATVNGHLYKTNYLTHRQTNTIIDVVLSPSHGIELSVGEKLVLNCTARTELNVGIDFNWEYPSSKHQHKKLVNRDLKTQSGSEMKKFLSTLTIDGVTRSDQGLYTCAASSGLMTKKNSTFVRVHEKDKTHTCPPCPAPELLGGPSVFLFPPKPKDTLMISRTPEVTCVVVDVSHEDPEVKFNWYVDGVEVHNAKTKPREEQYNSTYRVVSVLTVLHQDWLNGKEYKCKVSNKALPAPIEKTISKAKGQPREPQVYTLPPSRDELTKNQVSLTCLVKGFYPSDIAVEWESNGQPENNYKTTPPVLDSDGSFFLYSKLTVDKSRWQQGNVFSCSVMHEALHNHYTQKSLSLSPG

Substance: Human VEGF_(1–165) (ligand)
stoichiometry N [2]: 2
pKd (VEGF dual dAb (human) [1]): 11.14
koff (VEGF dual dAb (human) [1]): 4.76e-05 s⁻¹
kon (VEGF dual dAb (human) [1]): 6.63e+06 M⁻¹ s⁻¹

Substance: Human FcRn (from UniProt P55899 24-365; P61769 21-119) (receptor)
pKd (VEGF dual dAb (human) [3]): 6.49
pKd [4]: 6.32

Substance: Aflibercept (Fc fusion)
pIC50 [5]: 10.12
pIC50 [6]: 10.49
pEC50 (Human VEGF-A121 (human)): 9.50
pEC50 [7]: 10.07
pEC50 (Murine VEGF-A164 (mouse)): 10.02

Results, then the substance that gave them:

pKd (VEGF dual dAb (human) [1]): 11.00
koff (VEGF dual dAb (human) [1]): 8.08e-05 s⁻¹
kon (VEGF dual dAb (human) [1]): 8.13e+06 M⁻¹ s⁻¹
Substance: Human VEGF-A165, E. coli expressed (ligand)

pKd (VEGF dual dAb (human) [1]): 11.19
koff (VEGF dual dAb (human) [1]): 5.19e-05 s⁻¹
kon (VEGF dual dAb (human) [1]): 8e+06 M⁻¹ s⁻¹
Substance: Murine VEGF-A164 (ligand)
